The values below come from PMC6197280, “A distinct isoform of ZNF207 controls self-renewal and pluripotency of human embryonic stem cells”.

The data set concerns the target ZNF207 isoform C (human, UniProt O43670-4 1-494). Nature of the data set: EMSA; 100 ng protein, 3 ng probe, 1 ug poly(dI-dC), 10 mM MgCl2; 10 mM HEPES pH 7.5, 10 mM KCl, 10 mM MgCl2, 1 mM DTT, 1 mM EDTA, 10% glycerol, 1 ug poly(dI-dC) in 10 ul, 10 min at room temperature; 5% native PAGE in 0.5x TBE. The note with it: protein: commercial; label: 5' biotin on sense strand; duplex of annealed sense and reverse strands. A general note: A gel shift assay detects complexes by their altered migration in electrophoresis.

Chain of ZNF207 isoform C (O43670 other isoform, or with tags, fused parts or gaps): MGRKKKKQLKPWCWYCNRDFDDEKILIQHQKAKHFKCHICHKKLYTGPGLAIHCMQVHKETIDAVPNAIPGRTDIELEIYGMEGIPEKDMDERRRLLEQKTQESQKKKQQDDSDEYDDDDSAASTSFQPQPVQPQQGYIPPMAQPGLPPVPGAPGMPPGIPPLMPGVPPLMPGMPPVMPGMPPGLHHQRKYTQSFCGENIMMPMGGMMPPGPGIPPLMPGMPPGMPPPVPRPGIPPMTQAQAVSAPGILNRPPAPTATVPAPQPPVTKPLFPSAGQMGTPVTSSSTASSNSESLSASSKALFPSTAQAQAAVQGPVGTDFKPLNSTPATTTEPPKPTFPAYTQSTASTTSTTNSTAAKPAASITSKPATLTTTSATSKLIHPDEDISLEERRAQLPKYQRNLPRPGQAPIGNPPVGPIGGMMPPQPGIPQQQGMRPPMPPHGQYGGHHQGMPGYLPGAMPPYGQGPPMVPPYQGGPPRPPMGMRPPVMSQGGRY

B1: ZNF207 motif MUT (dsDNA)
DNA 1: TTTTAAACACGCGTGTGTTAG
DNA 2: CTAACACACGCGTGTTTAAAA
In the case of B1, the binding result is “no binding”.

B2: ZNF207 motif WT (dsDNA)
DNA 1: TTTGAAACACTCTTTTTGTAG
DNA 2: CTACAAAAAGAGTGTTTCAAA
In the case of B2, the binding result is reported as “binds”.
